Assays:
anti-HIV1-p17 antibody [1] = test: Reporter enzyme activity assay with nitrocefin and anti-HIV1-p17 antibody titration; details: 50 μM nitrocefin; for increase in enzymatic activity upon addition of 200 nM anti-HIV1-p17: 0.3 nM sensor, 200 nM antibody; for Kd: read-out: dissociation constant (Kd) of reporter enzyme for target antibody, fit of nitrocefin hydrolysis rate vs anti-HIV1-p17 concentration, 1:1 binding model, pH 7.0
IgG mix = test: Specificity of reporter enzyme activity towards nonspecific IgG mix; details: up to highest IgG concentration tested (2 μM)
anti-HIV1-p17 antibody [2] = test: Reporter enzyme activity assay with fluorescent substrate CCF2-FA in buffer and serum

B1: Abs-1: TEM1 β-lactamase fused via linker with WEKIRLR epitopes to weak-binding RRGHYY peptide inhibitor; SEQ ID NO: 12 (protein)
chain: MSIQHFRVALIPFFAAFCLPVFAHHHHHHLVPRGSHPETLVKVKDAEDQLGARVGYIELDLNSGKILESFRPEERFPMMSTFKVLLCGAVLSRIDAGQEQLGRRIHYSQNDLVEYSPVTEKHLTDGMTVRELCSAAITMSDNTAANLLLTTIGGPKELTAFLHNMGDHVTRLDRWEPELNEAIPNDERDTTMPVAMATTLRKLLTGELLTLASRQQLIDWMEADKVAGPLLRSALPAGWFIADKSGAGERGSRGIIAALGPDGKPSRIVVIYTTGSQATMDERNRQIAEIGASLIKHWTSGGWEKIRLRGGSGGSGGSGGSGGSGGSGAEAAAKEAAAKEAAAKEAAAKEAAAKEAAAKAGSGGSGGSGGPQGILGQGSGGSGGSGGSGAEAAAKEAAAKEAAAKEAAAKEAAAKEAAAKAGSGGSGGSGGSGGSGGSGGWEKIRLRGGSGGSHGRRGHYYGEFGGWSHPQFEK
increase in enzymatic activity upon addition of 200 nM anti-HIV1-p17 (anti-HIV1-p17 antibody [1]): no increase in enzymatic activity

B2: Abs2-2: Abs3-2 with the large epitope changed for the shorter WEKIRLR epitope; SEQ ID NO: 20 (protein)
chain: MSIQHFRVALIPFFAAFCLPVFAHHHHHHLVPRGSHPETLVKVKDAEDQLGARVGYIELDLNSGKILESFRPEERFPMMSTFKVLLCGAVLSRIDAGQEQLGRRIHYSQNDLVDYSPVTEKHLTDGMTVRELCSAAITMSDNTAANLLLTTIGGPKELTAFLHNMGDHVTRLDRWEPELNEAIPNDERDTTMPVAMATTLRKLLTGELLTLASRQQLIDWMEADKVAGPLLRSALPAGWFIADKSGAGERGSRGIIAALGPDGKPSRIVVIYTTGSQATMDERNRQIAEIGASLIKHWTSGGWEKIRLRGGSGGSGGSGGSGGSGGSGAEAAAKEAAAKEAAAKEAAAKEAAAKEAAAKAGSGGSGGSGGPQGILGQGSGGSGGSGGSGAEAAAKEAAAKEAAAKEAAAKEAAAKEAAAKAGSGGSGGSGGSGGSGGSGGWEKIRLRGGSGGSHGAGVMTGAKFTQIQFGMTRQQVLDIAGAENCETGGSFGDSIHCRGHAAGDYYAYATFGFTSAAADAKVDSKSQEKLLAPSAPTLTLAKFNQVTVGMTRAQVLATVGQGSCTTWSEYYPAYPSTAGVTLSLSCFDVDGYSSTGAYRGSAHLWFTDGVLQGKRQWDLVGEFGGWSHPQFEK
increase in enzyme activity upon addition of target antibody (anti-HIV1-p17 antibody [1]; saturating anti-HIV1-p17): 1.8 fold | Kd (anti-HIV1-p17 antibody [1]): 108 nM

B3: Abs-2: TEM1 β-lactamase fused via linker with WEKIRLR epitopes to BLIP protein as inhibitor domain; SEQ ID NO: 13 (protein)
chain: MSIQHFRVALIPFFAAFCLPVFAHHHHHHLVPRGSHPETLVKVKDAEDQLGARVGYIELDLNSGKILESFRPEERFPMMSTFKVLLCGAVLSRIDAGQEQLGRRIHYSQNDLVEYSPVTEKHLTDGMTVRELCSAAITMSDNTAANLLLTTIGGPKELTAFLHNMGDHVTRLDRWEPELNEAIPNDERDTTMPVAMATTLRKLLTGELLTLASRQQLIDWMEADKVAGPLLRSALPAGWFIADKSGAGERGSRGIIAALGPDGKPSRIVVIYTTGSQATMDERNRQIAEIGASLIKHWTSGGWEKIRLRGGSGGSGGSGGSGGSGGSGAEAAAKEAAAKEAAAKEAAAKEAAAKEAAAKAGSGGSGGSGGPQGILGQGSGGSGGSGGSGAEAAAKEAAAKEAAAKEAAAKEAAAKEAAAKAGSGGSGGSGGSGGSGGSGGWEKIRLRGGSGGSHGAGVMTGAKFTQIQFGMTRQQVLDIAGAENCETGGSFGDSIHCRGHAAGDYYAYATFGFTSAAADAKVDSKSQEKLLAPSAPTLTLAKFNQVTVGMTRAQVLATVGQGSCTTWSEYYPAYPSTAGVTLSLSCFDVDGYSSTGFYRGSAHLWFTDGVLQGKRQWDLVGEFGGWSHPQFEK
increase in enzymatic activity upon addition of 200 nM anti-HIV1-p17 (anti-HIV1-p17 antibody [1]): no increase in activity | enzymatic (background) activity in the absence of antibody (anti-HIV1-p17 antibody [1]): strongly inhibited

B4: Abs3-1: Abs-3 variant with E104D in β-lactamase and E31A in BLIP; SEQ ID NO: 22 (protein)
chain: MSIQHFRVALIPFFAAFCLPVFAHHHHHHLVPRGSHPETLVKVKDAEDQLGARVGYIELDLNSGKILESFRPEERFPMMSTFKVLLCGAVLSRIDAGQEQLGRRIHYSQNDLVDYSPVTEKHLTDGMTVRELCSAAITMSDNTAANLLLTTIGGPKELTAFLHNMGDHVTRLDRWEPELNEAIPNDERDTTMPVAMATTLRKLLTGELLTLASRQQLIDWMEADKVAGPLLRSALPAGWFIADKSGAGERGSRGIIAALGPDGKPSRIVVIYTTGSQATMDERNRQIAEIGASLIKHWTSGGELDRWEKIRLRPGGSGGSGGSGGSGGSGGSGAEAAAKEAAAKEAAAKEAAAKEAAAKEAAAKAGSGGSGGSGGSGGSGGSGAEAAAKEAAAKEAAAKEAAAKEAAAKEAAAKAGSGGSGGSGGSGGSGGSGGELDRWEKIRLRPGGSHGAGVMTGAKFTQIQFGMTRQQVLDIAGAENCATGGSFGDSIHCRGHAAGDYYAYATFGFTSAAADAKVDSKSQEKLLAPSAPTLTLAKFNQVTVGMTRAQVLATVGQGSCTTWSEYYPAYPSTAGVTLSLSCFDVDGYSSTGFYRGSAHLWFTDGVLQGKRQWDLVGEFGGWSHPQFEK
enzymatic (background) activity in the absence of antibody (anti-HIV1-p17 antibody [1]): low background activity | Kd (anti-HIV1-p17 antibody [1]): 0.17 ± 0.03 nM | increase in enzyme activity with random mix of IgG proteins (IgG mix): No significant increase | increase in enzyme activity upon addition of 50 nM target antibody in serum (anti-HIV1-p17 antibody [2]; 5 nM sensor, 10% FBS, 10 μM CCF2-FA): 10 fold | dynamic range with CCF2-FA as substrate (anti-HIV1-p17 antibody [2]; 1 μM CCF2-FA in buffer, 0.1 nM sensor): 9 fold | enzymatic activity in absence of target antibody, 1 μM CCF2-FA compared to 50 μM nitrocefin (anti-HIV1-p17 antibody [2]; buffer): significantly lower

B5: Abs3-2: Abs-3 variant with E104D in β-lactamase and F142A in BLIP; SEQ ID NO: 37 (protein)
chain: MSIQHFRVALIPFFAAFCLPVFAHHHHHHLVPRGSHPETLVKVKDAEDQLGARVGYIELDLNSGKILESFRPEERFPMMSTFKVLLCGAVLSRIDAGQEQLGRRIHYSQNDLVDYSPVTEKHLTDGMTVRELCSAAITMSDNTAANLLLTTIGGPKELTAFLHNMGDHVTRLDRWEPELNEAIPNDERDTTMPVAMATTLRKLLTGELLTLASRQQLIDWMEADKVAGPLLRSALPAGWFIADKSGAGERGSRGIIAALGPDGKPSRIVVIYTTGSQATMDERNRQIAEIGASLIKHWTSGGELDRWEKIRLRPGGSGGSGGSGGSGGSGGSGAEAAAKEAAAKEAAAKEAAAKEAAAKEAAAKAGSGGSGGSGGSGGSGGSGAEAAAKEAAAKEAAAKEAAAKEAAAKEAAAKAGSGGSGGSGGSGGSGGSGGELDRWEKIRLRPGGSHGAGVMTGAKFTQIQFGMTRQQVLDIAGAENCETGGSFGDSIHCRGHAAGDYYAYATFGFTSAAADAKVDSKSQEKLLAPSAPTLTLAKFNQVTVGMTRAQVLATVGQGSCTTWSEYYPAYPSTAGVTLSLSCFDVDGYSSTGAYRGSAHLWFTDGVLQGKRQWDLVGEFGGWSHPQFEK
enzymatic (background) activity in the absence of antibody (anti-HIV1-p17 antibody [1]): low background activity | Kd (anti-HIV1-p17 antibody [1]): 0.19 ± 0.02 nM | increase in enzyme activity with random mix of IgG proteins (IgG mix): No significant increase
